Measured values from patent US20240425614A1 (NARA MEDICAL UNIVERSITY, published 2024).
Substitutions are numbered along the chain they refer to.

T1: ADAMTS13 in normal human plasma (human, UniProt Q76LX8 75-1427)
T1 sequence (looked up): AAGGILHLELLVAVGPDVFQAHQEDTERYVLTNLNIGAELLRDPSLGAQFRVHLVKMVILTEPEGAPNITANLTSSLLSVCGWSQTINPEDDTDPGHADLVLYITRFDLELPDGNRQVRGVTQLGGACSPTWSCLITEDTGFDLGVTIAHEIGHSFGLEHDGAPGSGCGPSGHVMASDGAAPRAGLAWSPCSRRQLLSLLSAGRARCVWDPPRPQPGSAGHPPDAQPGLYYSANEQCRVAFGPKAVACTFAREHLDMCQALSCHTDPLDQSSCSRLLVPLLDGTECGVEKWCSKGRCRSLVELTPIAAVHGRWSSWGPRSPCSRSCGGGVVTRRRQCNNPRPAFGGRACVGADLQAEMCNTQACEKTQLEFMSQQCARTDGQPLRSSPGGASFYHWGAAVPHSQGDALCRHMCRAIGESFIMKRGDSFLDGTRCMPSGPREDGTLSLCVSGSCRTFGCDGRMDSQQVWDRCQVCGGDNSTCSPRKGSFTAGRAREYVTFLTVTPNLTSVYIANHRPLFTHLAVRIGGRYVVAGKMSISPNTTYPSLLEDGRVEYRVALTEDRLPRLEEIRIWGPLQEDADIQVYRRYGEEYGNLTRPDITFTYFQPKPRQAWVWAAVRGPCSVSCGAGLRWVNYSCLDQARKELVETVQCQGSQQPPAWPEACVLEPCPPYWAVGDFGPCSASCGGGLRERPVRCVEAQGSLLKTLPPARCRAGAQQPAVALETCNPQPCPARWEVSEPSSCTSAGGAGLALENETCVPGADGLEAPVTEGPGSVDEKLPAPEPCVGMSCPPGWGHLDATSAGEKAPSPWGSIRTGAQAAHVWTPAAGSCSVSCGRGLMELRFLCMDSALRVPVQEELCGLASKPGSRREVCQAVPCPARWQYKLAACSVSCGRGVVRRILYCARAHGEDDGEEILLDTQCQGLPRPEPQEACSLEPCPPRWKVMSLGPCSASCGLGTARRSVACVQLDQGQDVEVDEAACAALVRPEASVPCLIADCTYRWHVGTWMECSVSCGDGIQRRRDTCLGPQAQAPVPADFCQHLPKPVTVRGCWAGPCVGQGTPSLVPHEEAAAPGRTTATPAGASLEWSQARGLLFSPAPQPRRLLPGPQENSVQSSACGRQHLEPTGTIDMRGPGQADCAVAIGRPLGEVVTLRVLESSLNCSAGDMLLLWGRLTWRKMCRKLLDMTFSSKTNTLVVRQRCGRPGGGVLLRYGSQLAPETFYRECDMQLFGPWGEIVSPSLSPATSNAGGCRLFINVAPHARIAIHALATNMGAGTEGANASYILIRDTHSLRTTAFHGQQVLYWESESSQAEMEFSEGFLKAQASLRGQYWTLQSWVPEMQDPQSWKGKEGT

B1: ADAMTS13 in normal human plasma (protein)
chain: T1 sequence (looked up)
B2: 1G2 antibody (antibody, mouse IgG1, kappa, V domains shown)
VH: QVQLRESGPGLVAPSQSLSITCTVSGFSLPRYGIHWVRQPPGKGLEWLGVIWAGGSTDYDSALMSRLSISKDTSKSQVFLKMSSLQTDDTAIYYCARAGGSQPFDYWGQGTTLTVSS
VL: DIKMTQSPSSMYASLGERVTITCKASRDINTYLSWFQQKPGKSPKTLISRANRLVDGVPSRFSGSGSGQDYSLSISSLEYEDMGFYYCLQYDEFPWTFGGGTKLVIKR
B3: 12D10 antibody (antibody, mouse IgG1, kappa, V domains shown)
VH: QVQLKESGPGLVAPSQSLSITCTVSGFSLTRYGVHWVRQPPGKGLEWLGVIWAGGSTNYKSALMSRLNITKDNSKSQVFLKMNGLQTDDTAIYFCARAGGSSSFDYWGQGTTLTVSS
VL: B2 VL with Y12N, R27Q, S34G, S49Y, D70G, S74T, F85I, V105E
B4: 9A7 antibody (antibody, mouse IgG2b, kappa, V domains shown)
VH: QVQLKESGPGLVAPSQSLSITCTVSGFSLTGYGIHWVRQPPGKGLEWLGVIWADGTTNSNSALMSRLSISKDNSKSQVFLKMTSLQTDDTAMYHCARAGGSQPFDYWGQGTTLTVSS
VL: B2 VL with R27Q, T31S, S49F, S74T, G84E, F85I, V105E

Tests used:
[1] = target: von Willebrand factor (VWF) multimer in human plasma, P04275
[2] = target: T1, ADAMTS13 in normal human plasma; assay: cell-based or functional assay

| Binder | VWF multimer analysis (SDS-agarose gel, Western blot) of human plasma under high shear stress [1] | ID50 concentration on the VWF cleaving activity of ADAMTS13 (ADAMTS13 activity remaining in human plasma, ELISA) [2] [µg/mL] |
| --- | --- | --- |
| B1 | more deficiency in high-molecular-weight VWF multimer and stronger cleavage of VWF were shown with increase in shear stress of 108 dyne/cm^2, 216 dyne/cm^2, and 324 dyne/cm^2 |  |
| B2 |  | ~7.28 |
| B3 |  | ~25.4 |
| B4 |  | ~19.5 |
